In general, Kd refers to the equilibrium constant for the complex coming apart. Read a low Kd as tighter binding. What is called stoichiometry N is a count of units in the complex or per binding partner.

The values that follow come from article PMC3459857 (Molecular Biology of the Cell, 2012).

The target in series [1] is Capu-NT, the N-terminal half of Cappuccino (aa 1–466) (Drosophila) (UniProt Q24120).
In a further series the target is Capu(1–321) (Drosophila) (UniProt Q24120).
The target in series [2] is Capu-tail–Alexa Fluor 488 (Drosophila). The experiment in a line: fluorescence polarisation. (Polarisation of emitted light reports the rotation of a fluorescent probe.)
The series “AUC” concerns the molecule itself. The series can be described thus: AUC.
The series “SEC-MALS” deals with the molecule itself. The series can be described thus: SEC-MALS.
In series [3] the target is T1, Capu-CT, the C-terminal half of Cappuccino (aa 467–1059) (Drosophila, UniProt Q24120 467-1059).
T1 sequence (looked up): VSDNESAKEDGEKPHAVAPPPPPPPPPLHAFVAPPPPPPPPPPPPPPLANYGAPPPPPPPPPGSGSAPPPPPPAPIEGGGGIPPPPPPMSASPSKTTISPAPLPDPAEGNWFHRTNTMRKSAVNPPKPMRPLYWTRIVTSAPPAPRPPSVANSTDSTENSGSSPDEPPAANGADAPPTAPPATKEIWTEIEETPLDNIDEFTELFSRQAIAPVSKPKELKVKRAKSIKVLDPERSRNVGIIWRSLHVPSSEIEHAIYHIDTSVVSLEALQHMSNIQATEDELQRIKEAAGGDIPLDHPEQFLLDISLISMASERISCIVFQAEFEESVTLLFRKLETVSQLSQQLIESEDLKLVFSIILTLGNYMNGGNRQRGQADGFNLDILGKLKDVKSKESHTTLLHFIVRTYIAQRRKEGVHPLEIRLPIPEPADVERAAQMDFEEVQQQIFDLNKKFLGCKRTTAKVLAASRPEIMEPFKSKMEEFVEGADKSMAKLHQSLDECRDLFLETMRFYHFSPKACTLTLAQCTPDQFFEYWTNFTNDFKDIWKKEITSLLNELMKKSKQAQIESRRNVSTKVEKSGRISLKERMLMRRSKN
The series can be described thus: cell-based or functional assay.

For the molecule “GST–Capu-tail (dimeric) (domain or fragment)”, the Kd calculated from the pyrene-actin competition assay (Vinson analysis) in series [1] was 167 nM.
The molecule “Capu-tail (monomeric peptide cleaved from GST–Capu-tail)” came in with an EC50 of relief of Capu(1–321) inhibition of Capu-CT in the pyrene-actin assay in the series with Capu(1–321) (Drosophila) of 3000 nM.

B1: Capu-NT, the N-terminal half of Cappuccino (aa 1–466) (domain or fragment, Drosophila, UniProt Q24120 1-466, looked up)
chain: MALQLGKKLAQVLGSGAGSPLTPGTMEPCAAGSGSPLANGELFNVSKAKKVELQNLSSRFTAAVTQTPPGVTSSTPNESGVTGPAGPLGATTSSPSLETQSTVIISFKSSQTPVQSQTNSAASENVEDDTAPLPLPPPPPGFGTPTTPLLSSNVLKKVASFTVEKSSAGNNSSNPPNLCPTSDETTLLATPCSSSLTVATLPPEIAVGAAAGGVAGGAGSRRGSSYVPEKLSFAAYEKFEGQMLIKWLISTMQSNPKSSSGDANQELFNTLALQFCNNLKYVGVLKQISNEHLDCGFSPYEMYQWTHTEQPTTSLPLTPGKLDKVAAWPFSSTPSGIRALESASLASLGAGGVAGSLATIATASTASSDNQKTLQQILKKRLLNCTTLAEVHAVVNELLSSVDEPPRRPSKRCVNLTELLNASEATVYEYNKTGAEGCVKSFTDAETQTESEDCEGTCKCGQSSTK
On to B1, for which, in series [2], the Kd amounted to 300 nM. In the series “AUC”, the Kd came out at 245 nM and the “stoichiometry N” value was found to be 2.

B2: Capu(1–321) (domain or fragment, Drosophila, UniProt Q24120 1-321, looked up)
chain: MALQLGKKLAQVLGSGAGSPLTPGTMEPCAAGSGSPLANGELFNVSKAKKVELQNLSSRFTAAVTQTPPGVTSSTPNESGVTGPAGPLGATTSSPSLETQSTVIISFKSSQTPVQSQTNSAASENVEDDTAPLPLPPPPPGFGTPTTPLLSSNVLKKVASFTVEKSSAGNNSSNPPNLCPTSDETTLLATPCSSSLTVATLPPEIAVGAAAGGVAGGAGSRRGSSYVPEKLSFAAYEKFEGQMLIKWLISTMQSNPKSSSGDANQELFNTLALQFCNNLKYVGVLKQISNEHLDCGFSPYEMYQWTHTEQPTTSLPLTPGK
Regarding B2, the “stoichiometry N” value in “SEC-MALS” was found to be 2. In series [2], this molecule gave a Kd of 300 nM.

B3: Capu(1–222) (domain or fragment, Drosophila, UniProt Q24120 1-222, looked up)
chain: MALQLGKKLAQVLGSGAGSPLTPGTMEPCAAGSGSPLANGELFNVSKAKKVELQNLSSRFTAAVTQTPPGVTSSTPNESGVTGPAGPLGATTSSPSLETQSTVIISFKSSQTPVQSQTNSAASENVEDDTAPLPLPPPPPGFGTPTTPLLSSNVLKKVASFTVEKSSAGNNSSNPPNLCPTSDETTLLATPCSSSLTVATLPPEIAVGAAAGGVAGGAGSRR
On to B3, for which the “inhibition activity in the pyrene-actin assay relative to Capu-NT, at 100 nM” value in series [3] is ~40%. This molecule also returned a Kd in series [2] of 4800 nM.
